This is an account of results in publication PMC6412888, “Improving the Performance of Horseradish Peroxidase by Site-Directed Mutagenesis” (International Journal of Molecular Sciences, 2019).

Data set [1] has as its system T1, CCn1c(=NN=c2sc3cc(S(=O)(=O)O)ccc3n2CC)sc2cc(S(=O)(=O)O)ccc21.
T1 construct: mature HRP C1A without plant leader; E. coli BL21(DE3) periplasm, non-glycosylated, IMAC purified; hemin and CaCl2 added
As to the kind of experiment: purified protein. It is filed as biochemical, Armoracia rusticana.

Substrate in the data set “purified protein”: CCn1c(=NN=c2sc3cc(S(=O)(=O)O)ccc3n2CC)sc2cc(S(=O)(=O)O)ccc21
As to the kind of experiment: purified protein. The class given is biochemical, Armoracia rusticana. The note with it: 1 mM H2O2, 50 mM KH2PO4 pH 5, 30 °C.

The mark [2] stands for this setting: 1 mM H2O2, 50 mM BisTris/HCl pH 7, 7% glycerol, 100 mM NaCl, 30 °C.
The mark [3] stands for this setting: 1 mM H2O2, 50 mM KH2PO4 pH 5, 30 °C.

As a reminder, the Km is the substrate concentration at which the rate is half of its maximum. For orientation: Vmax means the rate approached at saturating substrate. A word on the kcat: it is the number of substrate molecules converted per active site and unit of time at saturation. The kcat/Km is the second-order rate constant that governs catalysis at low substrate concentration.

As for “Benchmark rHRP (HRP variant C1A) (Armoracia rusticana; N87S)”, in data set [1] (setting [2]), the Km is reported as 3.22 ± 0.59 mM, the Vmax came to 162 µM/min, the kcat was 2.1 ± 0.19 s⁻¹ and the kcat/Km turned out to be 640 ± 130 M⁻¹ s⁻¹.

On to “Benchmark rHRP (HRP variant C1A) (Armoracia rusticana; N298D/N87S)”, for which, in data set [1] (setting [2]), the Km amounted to 4.18 ± 3.55 mM, the Vmax amounted to 60 µM/min, the kcat is 1.5 ± 0.58 s⁻¹ and the kcat/Km was found to be 360 ± 340 M⁻¹ s⁻¹.

In the case of “Benchmark rHRP (HRP variant C1A) (Armoracia rusticana; N285D)”, in data set [1] (setting [2]), the Km was 4.37 ± 0.86 mM, the Vmax was found to be 53.4 µM/min, the kcat was 1.1 ± 0.12 s⁻¹ and the kcat/Km came out at 240 ± 50 M⁻¹ s⁻¹.

Consider “Benchmark rHRP (HRP variant C1A) (Armoracia rusticana; N285D/N298D/N43D/N87S)”, for which, in data set [1] (setting [3]), the Km is on record as 0.45 ± 0.12 mM, the Vmax is 1080 µM/min, the kcat was 17.4 ± 1.01 s⁻¹ and the kcat/Km stood at 39100 ± 10500 M⁻¹ s⁻¹.

As for “Benchmark rHRP (HRP variant C1A) (Armoracia rusticana; N43D)”, in data set [1] (setting [2]), the Km was found to be 3.29 ± 0.33 mM, the Vmax was 52.8 µM/min, the kcat stood at 1.04 ± 0.05 s⁻¹ and the kcat/Km worked out at 320 ± 40 M⁻¹ s⁻¹.

For “Benchmark rHRP (HRP variant C1A) (Armoracia rusticana; N298D)”, in data set [1] (setting [2]), the Km is on record as 7.85 ± 4.98 mM, the Vmax was found to be 144 µM/min, the kcat came out at 3 ± 1.25 s⁻¹ and the kcat/Km came to 380 ± 290 M⁻¹ s⁻¹.

On to “Benchmark rHRP (HRP variant C1A) (Armoracia rusticana; N285D/N298D/N87S)”, for which, in data set [1] (setting [2]), the Km is reported as 9.52 ± 6.89 mM, the Vmax worked out at 240 µM/min, the kcat turned out to be 4.81 ± 2.37 s⁻¹ and the kcat/Km is 510 ± 440 M⁻¹ s⁻¹.

B1: Benchmark rHRP (HRP variant C1A) (Armoracia rusticana) (protein)
chain: QLTPTFYDNSCPNVSNIVRDTIVNELRSDPRIAASILRLHFHDCFVNGCDASILLDNTTSFRTEKDAFGNANSARGFPVIDRMKAAVESACPRTVSCADLLTIAAQQSVTLAGGPSWRVPLGRRDSLQAFLDLANANLPAPFFTLPQLKDSFRNVGLNRSSDLVALSGGHTFGKNQCRFIMDRLYNFSNTGLPDPTLNTTYLQTLRGLCPLNGNLSALVDFDLRTPTIFDNKYYVNLEEQKGLIQSDQELFSSPNATDTIPLVRSFANSTQTFFNAFVEAMDRMGNITPLTGTQGQIRLNCRVVNSNS
notes: mature HRP C1A without plant leader; E. coli BL21(DE3) periplasm, non-glycosylated, IMAC purified; hemin and CaCl2 added
In the case of B1, in the data set “purified protein”, the Km was determined as 0.44 ± 0.10 mM, the Vmax was 120 µM/min, the kcat came out at 2.24 ± 0.11 s⁻¹ and the kcat/Km came to 5070 ± 1160 M⁻¹ s⁻¹.
